The Kd is the equilibrium constant for the complex coming apart.

The target of assay [1] is T1, Phosphatase of Regenerating Liver-3 (PRL-3), recombinant (Homo sapiens, UniProt O75365). Description: BLI.
For assay [2], the target named is GFP-PRL-2 in HCT116 cells (Homo sapiens, UniProt Q12974). Description: immunostaining of cells or tissue.
In assay [3] the target is GFP-PRL-1 in HCT116 cells (Homo sapiens, UniProt Q93096). Description: immunostaining of cells or tissue.
Assay [4] deals with 3XFLAG-PRL-3 in HEK293T cells (Homo sapiens, UniProt O75365). Description: pull-down.
Sequence of 3XFLAG-PRL-3 in HEK293T cells (O75365 whole entry): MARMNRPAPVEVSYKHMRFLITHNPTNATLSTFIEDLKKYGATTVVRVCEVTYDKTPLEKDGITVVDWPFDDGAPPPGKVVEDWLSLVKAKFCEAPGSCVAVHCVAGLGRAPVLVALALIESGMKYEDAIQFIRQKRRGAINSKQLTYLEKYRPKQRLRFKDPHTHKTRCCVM
Assay [5] concerns the target T1, Phosphatase of Regenerating Liver-3 …. Description: ELISA. A general note: ELISA stands for enzyme-linked immunosorbent assay.
Assay [6] addresses GFP-PRL-3 in HCT116 cells (Homo sapiens, UniProt O75365). Nature of the assay: immunostaining of cells or tissue.
In assay [7] the target is T1, Phosphatase of Regenerating Liver-3 …. Description: HDX-MS.
Assay [8] deals with 3XFLAG-PRL-3 in HCT116 cells (Homo sapiens, UniProt O75365). Description: immunostaining of cells or tissue.
Sequence of 3XFLAG-PRL-3 in HCT116 cells (O75365 whole entry): as above
The target of assay [9] is untagged (wild-type) PRL-3 in HCT116 cells (Homo sapiens, UniProt O75365). Nature of the assay: immunostaining of cells or tissue.
Sequence of untagged (wild-type) PRL-3 in HCT116 cells (O75365 whole entry): as above
Assay [10] addresses 3XFLAG-tagged PRL-3, recombinant (human, UniProt O75365). Nature of the assay: co-IP.

Sequence of GFP-PRL-2 in HCT116 cells (Q12974 whole entry): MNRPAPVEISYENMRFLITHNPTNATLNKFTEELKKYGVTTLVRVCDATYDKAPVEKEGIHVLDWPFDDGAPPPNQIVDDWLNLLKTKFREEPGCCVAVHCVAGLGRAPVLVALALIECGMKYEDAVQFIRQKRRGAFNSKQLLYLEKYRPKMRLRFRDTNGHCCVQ
Sequence of GFP-PRL-1 in HCT116 cells (Q93096 whole entry): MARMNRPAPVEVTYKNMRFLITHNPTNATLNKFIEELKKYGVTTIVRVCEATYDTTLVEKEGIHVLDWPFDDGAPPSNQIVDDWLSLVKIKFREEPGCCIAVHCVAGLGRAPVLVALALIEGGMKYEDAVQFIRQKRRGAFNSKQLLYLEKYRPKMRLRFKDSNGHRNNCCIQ
T1 sequence (O75365 whole entry): as the sequence (O75365 whole entry) above
Sequence of GFP-PRL-3 in HCT116 cells (O75365 whole entry): as above
Sequence of 3XFLAG-tagged PRL-3, recombinant (O75365 whole entry): as above

B1: anti-PRL-3 nanobody 26 (VHH)
VHH: QVQLQESGGGLVQPGGSLKLSCVVTGLHYYTEGWFRQAPGKEREGVSCISSSDGRTDYIDSVKGRFTISEDNDNKTVYLQMNTLKPDDTGVYYCVAERGPRGSTWWETYDYWGQGTHVTVSS
On to B1, for which the equilibrium dissociation constant (Kd) in assay [1] was found to be 28.9 nM. In addition, the binding result in assay [2] and in assay [3] was “no binding (tested: 1:100 of 1 mg/mL)” each time.

B2: anti-PRL-3 nanobody 19 (VHH)
VHH: QVQLQESGGGLVQAGGSLGLSCAASRSIFNFKVMGWYRQAPGKQRELVASITNSDNTYYADSVKGRFTISREDAKTTMYLEMNSLKPEDTAVYRCYGQNWGLRATTYWGQGTQVTVSS
For B2, the Kd in [1] came to 98.4 nM.

B3: anti-PRL-3 nanobody 84 (VHH)
VHH: QVQLQESGGGLVQAGGSLGLSCAASRSIFNFKVMGWYRQAPGKQRELVASITNSDNTYYADSVKGRFTISREDAKTTMYLEMNSLKPEDTTVYRCYGQNWGLRATTYWGQGTQVTVSS
As for B3, the binding result in [4], in assay [5] and in [6] was “binds” each time.

B4: anti-PRL-3 nanobody 4 (VHH)
VHH: QVQLQESGGGLVQTGGSLRLSCAASQSTYNFDVMGWYRLAPGKQREFLTSITNGGNIYYADSVKGRFTIARDDSKTTMYLEMNSLKPEDTAVYTCYGQTHKPRVTTSWGQGTQVTVSS
As to B4, the binding result in assay [4], in [5] and in [6] was “binds” each time.

B5: anti-PRL-3 nanobody 91 (VHH)
VHH: QVQLQESGGGLVQTGGSLRLSCAASQSTFNFDVMGWYRLAPGKQREFLTSITNGGNIYYADSVKGRFTIARDDSKTTMYLEMNSLKPEDTAVYTCYGQTHKPRVTTSWGQGTQVTVSS
As to B5, the binding result is given as “binds” in [4]; “binds” in assay [7]; “no binding (tested: 1:100 of 1 mg/mL)” in assay [2]; “binds” in assay [6]; “binds” in assay [8]; “no binding (tested: 1:100 of 1 mg/mL)” in assay [3]. Also, the binding result in assay [9] and in [10] was “binds” in each case.

B6: anti-PRL-3 nanobody 16 (VHH)
VHH: QVQLQESGGGLVQTGGSLRLSCAASQSTFNFDVMGWYRLAPGKQREFLTSITNGGNIYYADSVKGRFTTARDDSKTTMYLEMNSLKPEDTAVYTCYGQTHKPRVTTSWGQGTQVTVSS
With B6, the binding result in assay [4], in [5] and in [6] was “binds” in each case.

B7: anti-PRL-3 nanobody 10 (VHH)
VHH: QVQLQESGGGLVQTGGSLRLSCAASQSTFNFNVMGWYRLAPGKQREFLPSLTNGGNIYYADSVKGRFTIARDDSKTTTYLEMNSLKPEDTAVYTCYGQTHKPRVTTSWGQGTQVTVSS
For the molecule B7, the binding result is “binds” in assay [4]; “binds” in [5]; “no binding (tested: 1:100 of 1 mg/mL)” in assay [2]; “binds” in assay [6]; “no binding (tested: 1:100 of 1 mg/mL)” in assay [3].

(Values after paper doi:10.1101/2020.10.02.311787 (bioRxiv, 2020).)
